In the nanobody polyreactivity screen of Harvey et al. (2022):

Assay: yeast display, Sf9 membrane polyspecificity reagent, FACS + sequencing; frameworks hold sequencing errors
Summary of the method: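 A synthetic nanobody library was expressed on Saccharomyces cerevisiae BJ5465 by galactose induction for 36–48 hours. The library was stained for 1 hour at 4 °C with 10% biotinylated, detergent-solubilized Sf9 membrane reagent and enriched with streptavidin microbeads before FACS. Low and high (top ~1%) gates were set on anti-HA fluorescence for expression and streptavidin fluorescence for reagent binding, and each polyreactivity label reflects the gate of origin.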

Row | Sequence | polyreactivity (PSR sort gate)
1 | QGHLVESGGGLVQAGGSRRLSCAASGRIFSPYALGWSRQGPGKERELVAAISSDDGITYYADSVKRRFTISRDNAKNTVYFQMNSLKPEDTAVYYCAADSGTRPAGDYWGQGTQVTVSS | low polyreactivity
2 | QVQLVESGRRLVQAGGSLRLSCAASGSIFIPNVMGWYRQAPRKERELVASIRSNGGTNYADSVKGRFTISRDNAKNTVYLQMNSLKPEDTAVYNCAAKRWSYRHGFDYLGQGTQVTVSS | high polyreactivity
3 | QVQLVESGGGLVQAGGSLRLSCAASGRILDINTMRGYRHPPGKERELVAAITWSGVSTYYADSVKGRFTISRDNAKNTVYLQMNSLKPEDTAVYYCAARPYYTWRYLPTNSGDYWGQGTQETVSS | low polyreactivity
4 | QVQLVESGGGLVQAGGSLRLSCAASGYTFRRYAMGWYRQAPGKERELVAAINYSGGSTYYADSVKGRFTISRDNSKNTVYLQMNSLKPEDTAVYYCAARVPSPYVATYYYWGQGTQVTVSS | high polyreactivity
5 | QVQLVESGGGLVQAGGSLRLSCAASGRTFPGNAMGWSRQAPGKERELVATITWSSGRTHYADSVKGRFTISRDNAKNTVYLQMNSLKPEDTAVYYCAAKWIVAVGGFYYWGQGTQVTVSS | low polyreactivity
6 | QVQLVESGGGLVQAGGSLRLSCAASGRIFYPNAMGWYRQARGKERELVAGISSGGGRTYYADSVKGRFTISRDNAKNTVYLQMNSLKPEDTAVYYCATVGRGYDERHNYWGQGTQVTVSS | high polyreactivity
7 | QVQLVESGGGLVQAGGSLRLSCAASGGIFTLYVMGWYRQAPGKERELVAAISRTGGSTYYADSVKGRFTISRDNAKNTVYLQMNSLKPEDTAVYFCAALYRGGTRYGGYDYWGQGTQVTVSS | high polyreactivity
8 | QVQLVESGGGLVQAGGSLRLSCAASGSTSGIYAMGWYRQAPGKERELVAAIDTSGGSTYADSVKGRFTISRDNAKNTVYLQMNSLKPEDTAVYYCAKPFSSNSWSHGYWGQGTQVTVSS | low polyreactivity
9 | QVQLVESCGGLVQAGGSLRLSCAASGSTIVSNAMGWNRQAPGKERDLVAAITSGGTTNYADSVKGRFTISRDNAKNTVYLQMISLKPEETAVYYCAKRETVYYVNHPFTYSHDYCGQGTQVTVSS | low polyreactivity
10 | QVQLVESGGGLVQAGGSLRLSCAASGRIFVGYAMGWYRQAPGKERELVAAITGSGGGTYYADSVKGRFTISRDNAKNTVYLQMNSLKPEDTAVYYCNARYRSYYVTQRLDYWGQGTQVTVSS | high polyreactivity
11 | QVQLVESGGGLVQAGGSLRLSCAASGSIFYYAMGWYRQAPGKERELVATITRRGGRTHYADSVKGRFTLSRDNAKNTVYLQMNSLKPEDTAVYYCAADSYSYRYYYWGQGTQVTVSS | high polyreactivity
12 | QVQLVESGGGLVQAGGSLRLSCAASGSTLATNAMGWYRQAPGKERELVAYADSVKGRFTISRDNAKNTVYLQMNSLKPEDTAVYYCNVEAPGRAQYGYPQGDYWGQGTQVTVSS | low polyreactivity
13 | QVQLVESGGGLVQAGGSLRLSCAASGRIFFRYAMGWYRQAPGKERELVAAISYSGGSTYYADSVKGRFTISRDNAKNTVYLQMNSLKPDDTAVYYCATGPVYEYDYWGQGTQVTVSS | low polyreactivity
14 | QVQLVESGGGLVQAGGSLRLSCAASGSTFDYYAMGWYRQAPGKERELVATISWSGTDTYYADSVKGRFTISRDNAKNTVYLQMNSLKPEDTAVYYCAADTVYWRGWSGYYYWGQGTQVTVSS | low polyreactivity
15 | QVQLVESGGGLVQAGGSLRLSCAASGSTFSRYAMGWDRQAPGKEMELVAAISSSGGGTYYADSVKGRFTISRDNAKNTVYLQMNSLKPEDTAVSYCAAKRVHGATGYWGQGTQVTVSS | high polyreactivity
16 | QVQLVESGGGLVQAGGSLRLSCAASGSTFYHNVMGWSRQAPGKERELVASIDTGDSTNYADSVKGRFTISRDNAKNTVYLQMNSLKPEDTAVYYCNADSYPALNKRGYDYWGQGTQVTVSS | low polyreactivity
17 | HVQLVESGGGLVQAGGSLRLSCAASGSTFGENAMGWYRQAPGKERELVAAITWGTNTYYADSVKGRFTISRDNAKNTVYLQMNSLKPEDTAVYYCAAQFQTRGWRYVYWGQGTQVSVSS | low polyreactivity
